Assay [1] concerns the target T1, full-length human GIPR with an N-terminal FLAG tag (human, UniProt P48546 22-466).
T1 sequence (looked up): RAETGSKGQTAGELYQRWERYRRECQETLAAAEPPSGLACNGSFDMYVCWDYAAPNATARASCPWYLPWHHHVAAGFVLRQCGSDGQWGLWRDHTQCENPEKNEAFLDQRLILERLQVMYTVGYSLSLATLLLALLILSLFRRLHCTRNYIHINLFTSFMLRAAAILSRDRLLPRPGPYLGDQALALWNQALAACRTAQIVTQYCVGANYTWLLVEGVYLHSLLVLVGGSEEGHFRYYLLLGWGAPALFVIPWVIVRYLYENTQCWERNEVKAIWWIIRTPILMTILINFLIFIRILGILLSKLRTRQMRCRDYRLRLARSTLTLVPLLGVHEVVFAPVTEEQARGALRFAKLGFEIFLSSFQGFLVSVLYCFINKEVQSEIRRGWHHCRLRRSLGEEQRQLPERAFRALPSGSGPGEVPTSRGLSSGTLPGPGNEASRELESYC
In words: cell-based or functional assay.

The target in assay [2] is full-length human GLP-1R with an N-terminal FLAG tag (human, UniProt P43220 24-463). The experiment in a line: cell-based or functional assay.

Starred links: 1 amine or outer side, 2 acyl side, 3 side chain; linkers in the order of their positions; H or OH if unused. Non-standard residues stand in square brackets, D forms with d. Groups on a side chain read outwards from the residue. No end group written: not given here. *: point of attachment. C18 diacid = O=C(O)CCCCCCCCCCCCCCCCC(=O)*; C17 diacid = O=C(O)CCCCCCCCCCCCCCCC(=O)*; γGlu = O=C(O)[C@H](CCC(=O)[*:2])N[*:1]; NMeY = CN[C@@H](Cc1ccc(O)cc1)C(=O)O; AEEA = NCCOCCOCC(=O)O; E1 = not defined here; K1 = not defined here; Aib = CC(C)(N)C(=O)O

B1: Compound No. 119 (peptide)
peptide: [NMeY][Aib]EGTFISDYSIALDR[Aib]AQ[Aib]K([AEEA-AEEA-γGlu-γGlu-C18 diacid])FVEWLLAQSPG-OH
modifications: N-terminus assumed
SMILES: CC[C@H](C)[C@H](NC(=O)[C@H](CO)NC(=O)[C@H](Cc1ccc(O)cc1)NC(=O)[C@H](CC(=O)O)NC(=O)[C@H](CO)NC(=O)[C@@H](NC(=O)[C@H](Cc1ccccc1)NC(=O)[C@@H](NC(=O)CNC(=O)[C@H](CCC(=O)O)NC(=O)C(C)(C)NC(=O)[C@H](Cc1ccc(O)cc1)NC)[C@@H](C)O)[C@@H](C)CC)C(=O)N[C@@H](C)C(=O)N[C@@H](CC(C)C)C(=O)N[C@@H](CC(=O)O)C(=O)N[C@@H](CCCNC(=N)N)C(=O)NC(C)(C)C(=O)N[C@@H](C)C(=O)N[C@@H](CCC(N)=O)C(=O)NC(C)(C)C(=O)N[C@@H](CCCCNC(=O)COCCOCCNC(=O)COCCOCCNC(=O)CC[C@H](NC(=O)CC[C@H](NC(=O)CCCCCCCCCCCCCCCCC(=O)O)C(=O)O)C(=O)O)C(=O)N[C@@H](Cc1ccccc1)C(=O)N[C@H](C(=O)N[C@@H](CCC(=O)O)C(=O)N[C@@H](Cc1c[nH]c2ccccc12)C(=O)N[C@@H](CC(C)C)C(=O)N[C@@H](CC(C)C)C(=O)N[C@@H](C)C(=O)N[C@@H](CCC(N)=O)C(=O)N[C@@H](CO)C(=O)N1CCC[C@H]1C(=O)NCC(=O)O)C(C)C
With B1, in assay [1], the “Human GIPR cAMP EC50, HEK293T” value came to 0.0009 nM. Further, in assay [2], the “Human GLP1R cAMP EC50, HEK293T” value was determined as 50.1 nM.
For YXEGTFISDYSIAXDRXAQXDFVNWLLAQSPG (N-methyl Tyr 1; Aib at 2,17,20; Lys(G5-C20 diacid) at 14; C-terminal OH) [Compound No. 111], in that order: 0.0001 nM and 14.1 nM.
The corresponding values for YXEGTFISDYSIAXDRXAQRDFVEWLLAQSPG (N-methyl Tyr 1; Aib at 2,17; Lys(G5-C18 diacid) at 14; C-terminal OH) [Compound No. 120] are 0.0003 nM and 15.8 nM.
Take YXEGTFISDYSIAXDRXAQXDFVEWLLAQSPG (N-methyl Tyr 1; Aib at 2,17,20; Lys(G5-C18 diacid) at 14; C-terminal OH) [Compound No. 118]: the “Human GIPR cAMP EC50, HEK293T” value in assay [1] worked out at 0.0007 nM. Besides, in assay [2], the “Human GLP1R cAMP EC50, HEK293T” value was 91.2 nM.

B2: Compound No. 124 (peptide)
peptide: YXEGTFISDYSIAXDRXAQKDFVEWLLAQSPG
modifications: N-methyl Tyr 1; Aib at 2,17; Lys(G5-C18 diacid) at 14; 'K1' at 20 and 'E1' at 24 as printed; C-terminal OH
As to B2, the “Human GIPR cAMP EC50, HEK293T” value in assay [1] is 0.0003 nM. In addition, the “Human GLP1R cAMP EC50, HEK293T” value in assay [2] worked out at 123 nM.
Turning to YXEGTFISDYSIALDRXAQXDFVNWLLAQSPG (N-methyl Tyr 1; Aib at 2,20; Lys(G5-C18 diacid) at 17; C-terminal OH) [Compound No. 113], the “Human GIPR cAMP EC50, HEK293T” value in assay [1] was 0.0003 nM. Further, the “Human GLP1R cAMP EC50, HEK293T” value in assay [2] was 13.5 nM.
For YXEGTFISDYSIAXDRXAQXNFVNWLLAQSPG (N-methyl Tyr 1; Aib at 2,17,20; Lys(G5-C18 diacid) at 14; C-terminal OH) [Compound No. 114], in that order: 0.0001 nM and 11.7 nM.
Turning to [NMeY][Aib]EGTFISDYSI[K1]LDR[E1]AQ[Aib]K([AEEA-AEEA-γGlu-γGlu-C18 diacid])FVNWLLAQRG-OH (reading uncertain; also: 'K1' at 13 and 'E1' at 17, not explained) [Compound No. 122], the “Human GIPR cAMP EC50, HEK293T” value in assay [1] was 0.0008 nM. Also, in assay [2], the “Human GLP1R cAMP EC50, HEK293T” value turned out to be 3.55 nM.

B3: Compound No. 110 (peptide)
peptide: [NMeY][Aib]EGTFISDYSI[Aib]LDR[Aib]AQ[Aib]K([AEEA-AEEA-γGlu-γGlu-C18 diacid])FVEWLLAQKG-OH
modifications: N-terminus assumed
SMILES: CC[C@H](C)[C@H](NC(=O)[C@H](Cc1ccccc1)NC(=O)[C@@H](NC(=O)CNC(=O)[C@H](CCC(=O)O)NC(=O)C(C)(C)NC(=O)[C@H](Cc1ccc(O)cc1)NC)[C@@H](C)O)C(=O)N[C@@H](CO)C(=O)N[C@@H](CC(=O)O)C(=O)N[C@@H](Cc1ccc(O)cc1)C(=O)N[C@@H](CO)C(=O)N[C@H](C(=O)NC(C)(C)C(=O)N[C@@H](CC(C)C)C(=O)N[C@@H](CC(=O)O)C(=O)N[C@@H](CCCNC(=N)N)C(=O)NC(C)(C)C(=O)N[C@@H](C)C(=O)N[C@@H](CCC(N)=O)C(=O)NC(C)(C)C(=O)N[C@@H](CCCCNC(=O)COCCOCCNC(=O)COCCOCCNC(=O)CC[C@H](NC(=O)CC[C@H](NC(=O)CCCCCCCCCCCCCCCCC(=O)O)C(=O)O)C(=O)O)C(=O)N[C@@H](Cc1ccccc1)C(=O)N[C@H](C(=O)N[C@@H](CCC(=O)O)C(=O)N[C@@H](Cc1c[nH]c2ccccc12)C(=O)N[C@@H](CC(C)C)C(=O)N[C@@H](CC(C)C)C(=O)N[C@@H](C)C(=O)N[C@@H](CCC(N)=O)C(=O)N[C@@H](CCCCN)C(=O)NCC(=O)O)C(C)C)[C@@H](C)CC
On to B3, for which, in assay [1], the “Human GIPR cAMP EC50, HEK293T” value was 0.0003 nM. For the same molecule, the “Human GLP1R cAMP EC50, HEK293T” value in assay [2] worked out at 100 nM.

B4: Compound No. 126 (peptide)
peptide: [NMeY][Aib]EGTFISDYSI[Aib]LDR[Aib]AQ[Aib]K([AEEA-AEEA-γGlu-γGlu-C17 diacid])FVNWLLAQSPG-OH
modifications: N-terminus assumed
SMILES: CC[C@H](C)[C@H](NC(=O)[C@H](Cc1ccccc1)NC(=O)[C@@H](NC(=O)CNC(=O)[C@H](CCC(=O)O)NC(=O)C(C)(C)NC(=O)[C@H](Cc1ccc(O)cc1)NC)[C@@H](C)O)C(=O)N[C@@H](CO)C(=O)N[C@@H](CC(=O)O)C(=O)N[C@@H](Cc1ccc(O)cc1)C(=O)N[C@@H](CO)C(=O)N[C@H](C(=O)NC(C)(C)C(=O)N[C@@H](CC(C)C)C(=O)N[C@@H](CC(=O)O)C(=O)N[C@@H](CCCNC(=N)N)C(=O)NC(C)(C)C(=O)N[C@@H](C)C(=O)N[C@@H](CCC(N)=O)C(=O)NC(C)(C)C(=O)N[C@@H](CCCCNC(=O)COCCOCCNC(=O)COCCOCCNC(=O)CC[C@H](NC(=O)CC[C@H](NC(=O)CCCCCCCCCCCCCCCC(=O)O)C(=O)O)C(=O)O)C(=O)N[C@@H](Cc1ccccc1)C(=O)N[C@H](C(=O)N[C@@H](CC(N)=O)C(=O)N[C@@H](Cc1c[nH]c2ccccc12)C(=O)N[C@@H](CC(C)C)C(=O)N[C@@H](CC(C)C)C(=O)N[C@@H](C)C(=O)N[C@@H](CCC(N)=O)C(=O)N[C@@H](CO)C(=O)N1CCC[C@H]1C(=O)NCC(=O)O)C(C)C)[C@@H](C)CC
As for B4, the “Human GIPR cAMP EC50, HEK293T” value in assay [1] came to 0.0004 nM. In addition, the “Human GLP1R cAMP EC50, HEK293T” value in assay [2] was 30.9 nM.
As for [NMeY][Aib]EGTFISDYSIALDR[Aib]AQ[Aib]K([GGPAPAPgE-C18 diacid])FVNWLLAQSPG-OH [Compound No. 117], the “Human GIPR cAMP EC50, HEK293T” value in assay [1] is 0.002 nM. The “Human GLP1R cAMP EC50, HEK293T” value in assay [2] is 44.7 nM.
Take YXEGTFISDYSIALDRXAQXDFVEWLLAQRG (N-methyl Tyr 1; Aib at 2,20; Lys(G5-C18 diacid) at 17; C-terminal OH) [Compound No. 115]: in assay [1], the “Human GIPR cAMP EC50, HEK293T” value amounted to 0.0003 nM. In addition, the “Human GLP1R cAMP EC50, HEK293T” value in assay [2] was 40.7 nM.

B5: Compound No. 121 (peptide)
peptide: YXEGTFISDYSIAXDRXAQKDFVEWLLAQRG
modifications: N-methyl Tyr 1; Aib at 2,17; Lys(G5-C18 diacid) at 14; 'K1' at 20 and 'E1' at 24 as printed; C-terminal OH
Turning to B5, in assay [1], the “Human GIPR cAMP EC50, HEK293T” value was found to be 0.0005 nM. Further, the “Human GLP1R cAMP EC50, HEK293T” value in assay [2] was 89.1 nM.

B6: Compound No. 125 (peptide)
peptide: [NMeY][Aib]EGTFISDYSIALDR[Aib]AQ[Aib]K([AEEA-AEEA-γGlu-γGlu-C17 diacid])FVNWLLAQSPG-OH
modifications: N-terminus assumed
SMILES: CC[C@H](C)[C@H](NC(=O)[C@H](CO)NC(=O)[C@H](Cc1ccc(O)cc1)NC(=O)[C@H](CC(=O)O)NC(=O)[C@H](CO)NC(=O)[C@@H](NC(=O)[C@H](Cc1ccccc1)NC(=O)[C@@H](NC(=O)CNC(=O)[C@H](CCC(=O)O)NC(=O)C(C)(C)NC(=O)[C@H](Cc1ccc(O)cc1)NC)[C@@H](C)O)[C@@H](C)CC)C(=O)N[C@@H](C)C(=O)N[C@@H](CC(C)C)C(=O)N[C@@H](CC(=O)O)C(=O)N[C@@H](CCCNC(=N)N)C(=O)NC(C)(C)C(=O)N[C@@H](C)C(=O)N[C@@H](CCC(N)=O)C(=O)NC(C)(C)C(=O)N[C@@H](CCCCNC(=O)COCCOCCNC(=O)COCCOCCNC(=O)CC[C@H](NC(=O)CC[C@H](NC(=O)CCCCCCCCCCCCCCCC(=O)O)C(=O)O)C(=O)O)C(=O)N[C@@H](Cc1ccccc1)C(=O)N[C@H](C(=O)N[C@@H](CC(N)=O)C(=O)N[C@@H](Cc1c[nH]c2ccccc12)C(=O)N[C@@H](CC(C)C)C(=O)N[C@@H](CC(C)C)C(=O)N[C@@H](C)C(=O)N[C@@H](CCC(N)=O)C(=O)N[C@@H](CO)C(=O)N1CCC[C@H]1C(=O)NCC(=O)O)C(C)C
As for B6, the “Human GIPR cAMP EC50, HEK293T” value in assay [1] was found to be 0.0005 nM. The “Human GLP1R cAMP EC50, HEK293T” value in assay [2] was 20 nM.
For [NMeY][Aib]EGTFISDYSIA[K1]DRA[E1]Q[Aib]K([AEEA-AEEA-γGlu-γGlu-C18 diacid])FVNWLLAQRG-OH (reading uncertain; also: 'K1' at 14 and 'E1' at 18, not explained) [Compound No. 123], in that order: 0.0005 nM and 74.1 nM.

Source of the values: patent publication US20230143604A1, “QW DOSING OF GIP RECEPTOR AGONIST PEPTIDE COMPOUNDS AND USES THEREOF” (TAKEDA PHARMACEUTICAL COMPANY LIMITED, priority 2020, published 2023).
